Measured values: patent publication US10465005B2, “JAML specific binding agents, antibodies, and uses related thereto” (Emory University, priority 2011, dated 2019)
“Also recorded” adds a separate entry of the source.

What was measured:
T84 monolayers = assay: Epithelial barrier recovery after calcium switch (TER, dextran flux); format: cell-based, human; conditions: 30 μg/ml, 20 m/ml, up to 24 hours, FIG. 9A
Method: T84 monolayers grown on permeable supports were subjected to transient calcium depletion by preincubation in Ca2+ free buffer (PBS) for 40 min to disassemble tight junctions, followed by switching back to calcium containing medium without (No Tx), or with sJAML or a control recombinant IgSF protein sSIRPa (30 μg/ml). Barrier recovery was measured as transepithelial resistance (TER) at time points as indicated.
FIG. 9B. Flux of fluorescently labeled dextran (3 k) was measured at the 24 h time point for conditions as described in panel A. N=4.
Since CAR plays a role in epithelial barrier, the effect of soluble JAML on epithelial barrier recovery was tested. Transepithelial resistance (TER) recovery experiments and dextran flux assay were performed with T84 cells grown in transwells (FIG. 9) as well as with Caco2 cells. […] As a negative control, a related soluble IgSF molecule SIRPalpha had no effect.

PMN = assay: Surface JAML on PMN after activation (flow cytometry); format: cell-based, human
Method: Freshly isolated PMN, not treated (No Tx), or treated with either fMLF (100 nM) or PMA (200 nM) in suspension for 15 minutes at 37° c. were fixed with 1% paraformaldehyde, stained for JAML (DW100) and CD11b/CD18 (CBRM 1/29) and analyzed for surface expression by flow cytometry.
Since prior to transepithelial migration PMNs exit the blood vessels, whether JAML expression on PMNs would be preserved during migration across endothelial cells (HDMECs) towards a 10 μM fMLF, as described previously was evaluated. Indeed under similar conditions only a small portion of surface JAML was lost, but most of it was still detectable on PMN surface (FIG. 3B).
Thus whether PMN activation alone is sufficient to induce the loss of surface JAML or whether direct contact with the epithelium is required was examined. To test this, the expression of JAML was analyzed on PMNs that were stimulated in suspension with fMLF (100 μM) and PMA (200 nM). PMNs were allowed to adhere to epithelial cells for 1 hour. The loss of JAML could be correlated to the degree of PMN activation. […] This was again confirmed by immunofluorescence (FIG. 4B). PMN adhesion to epithelium in the absence of proinflamatory stimulus (as measured by flow cytometry, gating on Mac-1 positive PMNs) was also sufficient to induce a partial loss of surface JAML (FIG. 4C), in agreement with the small loss of surface JAML observed after migration through endothelial cells (FIG. 3B). […] Next, the observed loss of JAML during PMN activation may be due to its shedding from PMN surface and thus would be detectable in the supernatant of activated cells. To test this hypothesis, two antibodies, DW100 and DW216 that recognize two different epitopes of JAML were used in a sandwich ELISA assay to capture solubilized molecules in the supernatant of activated PMN.

[1] = target: T1, CHO-JAML-His and CHO JAML-6xMyc (Homo sapiens, UniProt Q86YT9); assay: FACS staining of stably transfected CHO-JAML cell lines; format: binding; conditions: FIG. 1A
T1 construct: 6xMyc (cell line CHO JAML-6xMyc); expressed in transfected cells
T1 sequence (Q86YT9 20-394): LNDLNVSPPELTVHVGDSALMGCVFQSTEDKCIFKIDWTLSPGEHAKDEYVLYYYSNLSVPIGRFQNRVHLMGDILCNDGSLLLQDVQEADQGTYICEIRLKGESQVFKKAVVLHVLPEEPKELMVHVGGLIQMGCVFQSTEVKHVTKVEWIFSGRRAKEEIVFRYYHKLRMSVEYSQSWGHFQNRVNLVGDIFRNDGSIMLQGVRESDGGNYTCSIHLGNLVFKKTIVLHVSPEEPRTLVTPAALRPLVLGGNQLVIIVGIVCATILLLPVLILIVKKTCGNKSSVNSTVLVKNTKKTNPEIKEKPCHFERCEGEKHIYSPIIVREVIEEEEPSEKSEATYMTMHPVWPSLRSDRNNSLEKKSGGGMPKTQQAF
Excerpt: BALB/c mice were immunized with recombinant soluble fragment of JAML.D1D2 tagged with 10 His residues at the C-terminus (sJAML-His), generated in H293T cells and purified by Nickel chromatography. After the 4th boost, mice were given a final immunization and, 3 days later, spleen cells harvested and fused to the myeloma cell line P3U1. Hybridomas were selected in HAT medium and supernatants of clones were subjected to screening first to immobilized, soluble JAML and followed by staining of CHO-JAML stable transfectants. Three hybridomas were selected and antibodies were purified from ascites. FACS staining profiles of mAbs using two different, stably transfected CHO-JAML cell lines, CHO-JAML-His and CHO JAML-6xMyc, both membrane bound and tagged at the C-terminus with either 10-His or 6xMyc. Control antibody is 9E10 anti Myc.
These hybridomas were further tested for reactivity against tagged, full-length JAML expressed on the surface of cultured cells. CHO-JAML-6XMyc transfectants were aliquoted and pelleted into round bottom 96 well plates. 100 μl hybridoma supernatants were added for 1 hr at 4° C. Cells were washed and positive wells were identified by FACS analysis using Goat anti Mouse-AlexaFluor 488. Cells from positive wells were cloned by limiting dilution at one cell per well and expanded first in DMEM-10% FBS containing HAT then in medium containing HT (ATCC) and later DMEM, 10% FBS. The cloned cells of interest were sent to Harlan Laboratories (Indianapolis, Ind.) for production of ascites. Antibodies were purified from ascitic fluid using proteinA-Sepharose (GE Healthcare) followed by dialysis against PBS. Aliquots were frozen at −80° C. Ig subclass of each antibody was determined by using the IsoStrip Mouse Monoclonal Antibody Isotyping Kit (Roche Applied Science). […]
Cells suspensions of adherent cells were prepared by trypsinization with Trypsin-EDTA (Sigma). […] After final washes, cells were analyzed using FACS Calibur. […] All samples were stained for JAML (DW100 mAb) and CD11b/CD18 (CBRM 1/29), and only CD11b/CD18 positive cells (PMNs) were analyzed for JAML expression.

JAML binding with CAR = target: T2, JAML binding with CAR (Homo sapiens, UniProt Q86YT9); assay: CAR binding assay (ELISA, CAR-GST on immobilized sJAML-His); conditions: CAR-GST 10 μg/ml on immobilized sJAML-His preincubated with antibody; FIG. 1C
T2 construct: soluble JAMLD1D2 was truncated and tagged after residue Leucine259; made in house; host or cells: HEK293T (sJAML-His)
T2 sequence (Q86YT9 20-259): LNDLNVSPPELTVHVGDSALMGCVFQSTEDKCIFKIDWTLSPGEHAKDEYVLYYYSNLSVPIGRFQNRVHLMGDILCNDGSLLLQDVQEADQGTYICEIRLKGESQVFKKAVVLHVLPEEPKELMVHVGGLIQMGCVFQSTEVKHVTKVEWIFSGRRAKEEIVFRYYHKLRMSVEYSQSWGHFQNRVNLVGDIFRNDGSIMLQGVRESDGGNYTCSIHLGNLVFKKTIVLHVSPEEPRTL
Method: FIG. 1C. CAR binding assay: sJAML-His was coated in Immulon II microtiter microtiter wells overnight, at 4° C. Microtiter wells were washed and blocked and 100 μl antibody solutions were added to wells for 1 hour RT. After washing, CAR-GST was added at 10 μg/ml for 1 hour RT, washed and the assay was developed with HRP conjugated goat anti GST followed by ABTS and OD measurement at 405 nm.
(§1) Because certain antibodies recognize the membrane distal domain of JAML, their ability to inhibit binding to CAR was tested. By ELISA, the levels of soluble CAR-GST bound to immobilized sJAML-His preincubated with anti JAML antibodies was measured. […] Thus, these antibodies recognize three different epitopes on JAML and that both DW100 and DW55 bind epitopes close to the JAML binding site. Using a cell aggregation assay, the possibility that DW100 could inhibit the binding of JAML to CAR expressed on the surface of cells was examined. […] This again confirms previously described JAML binding to CAR, as well as the specificity of DW100 (blocking) and DW216 (non-blocking) Abs to JAML.

[2] = test system: T84 epithelial monolayers; assay: Scratch wound closure of epithelial monolayers; format: cell-based, human; conditions: T84; mAb 30 μg/ml; FIG. 10A,B
Method: T84 epithelial monolayers grown to confluence were wounded by introduction of a single linear scratch wound using a 20-μl plastic pipette tip. Wound closure was monitored over 72 h in the absence or presence of PMN or sJAML. The scale bar is 10 μm.
Whether JAML binding to CAR would affect epithelial wound restitution was investigated. […] If soluble JAML interactions with CAR play a role, the effect could be reversed with the addition of blocking DW100 mAb.
Cell grown in 24-well tissue culture plates received one linear wound using a 20-μl plastic pipette tip attached to low suction. Wounded monolayers were washed once with PBS to remove detached cells and debris, and incubated with the appropriate stimulus added to the medium. The rate of migration was measured by determining the wound area immediately after wounding (t=0) and at the indicated time points. The data are presented as the area of the wound at each time point normalized to t=0. The experiments were carried out in triplicates per condition, and the data shown are representative of 4 independent experiments.

[3] = test system: CHO-JAML and CHO-CAR cells; assay: CHO-JAML / CHO-CAR cell aggregation assay; format: cell-based; conditions: antibodies 30 μg/ml; 1 hour at 37° C.; FIG. 1D
Method: FIG. 1D. CHO-K1 cells stably transfected with either JAML (CHO-JAML) or CAR (CHO-CAR) proteins were allowed to aggregate (1 hour at 37° C. on a shaker at 50 RPM) separately (1×10^6 cells/BSA coated 3 ml Petri dish), or as a mix (5×10^5 each cell type/dish), in the absence or presence of anti-JAML monoclonal antibodies DW100, DW55 and DW216 (30 μg/ml). The number of clusters (left) and the area of the clusters (right) were quantified in 7 randomly chosen fields using light microscopy. The results are representative of four independent experiments. CHO-CAR and CHO-JAML in mixed cultures formed large aggregates.
as §1

Molecule: SIRPalpha: control recombinant IgSF protein, related soluble IgSF molecule [reference compound]
- epithelial barrier recovery (TER) after calcium depletion (T84 monolayers): had no effect

Molecule: fMLF
- JAML expression on PMN after fMLF (PMN; 10 μM fMLF): no significant effect on JAML expression
- surface JAML on PMN after fMLF (PMN; 100 μM fMLF, FIG. 4A as described in Example 4): partial but significant loss of JAML
- surface JAML on PMN after fMLF (PMN; fMLF 100 nM, suspension, 15 minutes at 37° c., FIG. 4A): partial loss of JAML

B1: DW55: monoclonal anti-human JAML antibody (IgG2b,κ); VH SEQ ID NO:20, VL SEQ ID NO:23 (antibody, V domains shown)
VH: CDVQLVESGGGLVQPGGSRKLSCAASGFTFSDYGMAWVRQAPGKGPEWVAFISNLAYSIYYSDTVTGRFTISRENAKNTLYLEMSSLRSEDTAMYYCARGDYSGGMMDYWGQGT
VL: VLTSQPASLAVSLGQRATISYRASKSVSTSGYSYMHWNQQKPGQPPRLLIYLVSNLESGVPARFSGSGSGTDFTLNIHPVEEEDAATYYCQHIRELTRSEGGPSWK
- FACS staining of CHO-JAML transfectant lines [1]: stained both transfectant lines equally well
- inhibition of CAR binding to JAML (JAML binding with CAR): inhibit human JAML binding with CAR; also recorded: partially inhibited binding; also recorded: partly inhibitory

B2: DW216: monoclonal anti-human JAML antibody (IgG1,κ), non-blocking; VH SEQ ID NO:21, VL SEQ ID NO:24 (antibody, V domains shown)
VH: DVQLVESGPGLVKPSQSLSLTCTVTGYSITSDYAWNWIRQFPGNKLEWMGYISSSGNSNYNPSLKSRISITRDTSKNQFFLQLNSVTTEDTATYYCAGATGYSMDYWGQGTTLTVK
VL: VLTQSPAIMSASLGERVTMTCTASSSVSSSYLHWYQQKPGSSPKLWIYSTSNLASGVPARFSGSGSGTSYSLTISSMEAEDAATYYCHQYHRSPFTFGSGTKLELK
- FACS staining of CHO-JAML transfectant lines [1]: stained both transfectant lines equally well
- reversal of PMN or sJAML inhibition of wound closure [2]: but not DW216 mAb (30 μg/ml) significantly improved wound restitution
- inhibition of CAR binding to JAML (JAML binding with CAR): did not inhibit at all; also recorded: whereas DW216 did not

B3: soluble CAR: purified extracellular domain of CAR that was tagged with GST (protein)
chain: LSITTPEEMIEKAKGETAYLPCKFTLSPEDQGPLDIEWLISPADNQKVDQVIILYSGDKIYDDYYPDLKGRVHFTSNDLKSGDASINVTNLQLSDIGTYQCKVKKAPGVANKKIHLVVLVKPSGARCYVDGSEEIGSDFKIKCEPKEGSLPLQYEWQKLSDSQKMPTSWLAEMTSSVISVKNASSEYSGTYSCTVRNRVGSDQCLLRLNVVPPSNKAG
modifications: left off: a dimerising Fc or GST
- aggregation of mixed CHO-CAR and CHO-JAML cultures (number and size of clusters) [3]: blocked
